Experimental data taken from the nanobody polyreactivity screen of Harvey et al. (2022).

Assay: yeast display, Sf9 membrane polyspecificity reagent, FACS + sequencing; frameworks hold sequencing errors
Procedure, shortened: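 Polyreactivity labels are assigned by the sorting gate from which each nanobody was recovered. The gates were low and high (top ~1%), set on anti-HA fluorescence for expression and streptavidin fluorescence for reagent binding. Before sorting, galactose-induced (36–48 hours) yeast display cells were stained for 1 hour at 4 °C with 10% biotinylated, detergent-solubilized Sf9 membrane reagent.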

Sequence	polyreactivity (PSR sort gate)
QVQLVESGGGLVQAGGSLRLSCAASGFTFTWYVMGWYRQAPGKERELVAAISRSGGSTYYADSVKGRFTISRDNAKNTVYLQMNSLKPEDTAVYYCAAVGTSRYDYWGQGTQGTVSS	high polyreactivity
QVQLVESGGGLVQAGGSLRLSCAASGFTFTYNAMGWYRKAPGKERELVAALTANGGGTNYADSVKGRFTISRDNAKNTVYLQMNSLKPEDTAVYYCAATIVVAVFESLGFYWYTEDNYWGQGTQVTVSS	low polyreactivity
QVQLVESGGGLVQAGGSLRLSCAASGFTFTYNAMGWYRQAPGKERELVAGISWRGGTTYYADSVKGRFTISRDNAKNTVYLQMNSLKPEDTAVYYCAARNYYRGSGWPSNRGYYWGQGTQVTVSS	high polyreactivity
QVQLVESGGGLVQAGGSLRLSCAASGFTFTYNDMGWYRQAPGKEREFVAAISSTGGSTNYADSVKGRFTISRDNAKNTVYLQMNSLKPEDTAGYYCATESYDSYGLYDYWGQGTQVTVSS	low polyreactivity
QVQLVESGGGLVQAGGSLRLSCAASGFTFTYNDMGWYRQAPGKEREFVAAISSTGGSTYYADSVKGRFTISRDNAKNTVYLQMNSLIPEDTAVYYCAAEDSWYWDAWFDYWGQGTQVTVSS	low polyreactivity
QVQLVESGGGLVQAGGSLRLSCAASGFTFTYNDMGWYRQAPGKEREFVAAISSTGGSTYYADSVQGRFTISRDNAKNTVYLQMNSLKPEDTAVYYCAAEDSWYWDAWFDYWGQGTQVTVSS	low polyreactivity
QVQLVESGGGLVQAGGSLRLSCAASGFTFTYYAMGWYRQAPGKERELVAGISRSGGSTYYADSVKGRFTISRDNAKNTVYLQMNSLKPEDTAVYYCAATAYSPRGKRYDSWGQGTQVTVSS	high polyreactivity
QVQLVESGGGLVQAGGSLRLSCAASGFTFTYYTMGWYRQAPGKERELVAAISYSGGSTYYADSVKGRFTISRDNAKNTVYLQMNSLKPEDTAVYYCNAVTSWAGSLDYWGQGTQVTVSS	high polyreactivity
QVQLVESGGGLVQAGGSLRLSCAASGFTFVDNAMGWYRQAPGKERELVAVIDFNDGTTYYADSVKGRFTISRDNAKNSVYLQMNSLKPEDTEVYYCNVDSSLILWVEYDYWGQGTQVTVSS	low polyreactivity
QVQLVESGGGLVQAGGSLRLSCAASGFTFVDYAMGWYRQAPGKERELVATINWDSGSTYADSVKGRFTISRDNAKNTVYLQMNSLKPEDSADYYCAADGDEIEVSFYSWGQGTQVTVSS	low polyreactivity
QVQLVESGGGLVQAGGSLRLSCAASGFTFVGNAMGWSRQAPGKERELVAAIRWSSGSTYYADSVKGRFTISRDNAKNTVYLQMNSLKPEDTAVYYCAADYWTGITPDAIGDYWGQGTQVTVSS	low polyreactivity
QVQLVESGGGLVQAGGSLRLSCAASGFTFVGNAMGWYRQAPGQERELVAAITRGGSTYYADSVKGRFTISRDNAKNTVYLQMNSLKPEDTAVYYCNAELPVHWSWYDYWGQGTQVNVSS	low polyreactivity
QVQLVESGGGLVQAGGSLRLSCAASGFTFVINDMGWYRQAPVKERELVADITSGGDTYYADSVKGRFTISRVNAKNTVYLQMYRLKPEDTAVYYCAADIYPDWIYLLYGYWGQGTQVNVSS	low polyreactivity
QVQLVESGGGLVQAGGSLRLSCAASGFTFVIYAMGWYRQAPGKERELVAAIRSGGRTYYADSVKGRFTISRDNAKNTVYLQMNSLKPEDTAVYYCAAVPALKWYGYEYWGQGTQVTVSS	high polyreactivity
QVQLVESGGGLVQAGGSLRLSCAASGFTFVNYAIGWYRQAPGKERELVAAIRRSGSRTYYADSVKGRFTISRDNAKNTVYLQMNSLKPEDTAVYYCAAVWYRLYGYWGQGTQVTVSS	low polyreactivity
QVQLVESGGGLVQAGGSLRLSCAASGFTFVNYAMGWYRQAPGKERELVAASSRSGGRTYYADSVKGRFTISRDNAKNTVYLQKNSLKPEDTAVYYCARLLLSPEYGYWGQGTQVTVSS	high polyreactivity
QVQLVESGGGLVQAGGSLRLSCAASGFTFVPYAMGWYRQAPGKERELVAAISSRGDSTYYADSVKGRFTISRDNAKNTVYLQMNSLKPEDTAVYYCNARTTPHMDYWGQGTQVTVSS	low polyreactivity
QVQLVESGGGLVQAGGSLRLSCAASGFTFVPYAMGWYRQAPGKERETNADSVKGRFTISRDNAKNTVYLQRNSLKPEDTAVYYCAADVWASRRYDYWGQGTQVTVSS	low polyreactivity
QVQLVESGGGLVQAGGSLRLSCAASGFTFVRYTMGWYRQSPGKEREMVAAINRSGGNTYYADSVKGRFTISRDNAKNTVYLQMNSLKPEDTAVYYCAAGYYVQVSLKDYYWGQGTQVTVSS	high polyreactivity
QVQLVESGGGLVQAGGSLRLSCAASGFTFVSNDMGWYRQAPGKERELVAAIRYRGGDTYYADSVKGRFTISRDNAKNTVYLQMNRLKPEDTAVYYCAVDVATYTAGWYYHGYDYWGQGTQVTVSS	low polyreactivity
QVQLVESGGGLVQAGGSLRLSCAASGFTFVSNDMGWYRQEPGKERELVAAISQGGGSTYYADSVKGRFTISRDNAKNTVYLQINSLKPEDTAVYYCAAEDVYFGYDYWGQGTQVTVSS	low polyreactivity
QVQLVESGGGLVQAGGSLRLSCAASGFTFVSYAMGWYRQAPGKERELVAAISKRGGSTSYADSVKGRFTISRDNAKNTVYLQMNSLKPEDTAVYYCNKRSYAWSPHVDYWGQGTQVTVSS	high polyreactivity

Sequence	polyreactivity (PSR sort gate)
QVQLVESGGGLVQAGGSLRLSCAASGFTFVSYAMGWYRQAPGKERELVAVISKSGSRTSYAESVKGRFTISRDNAKNTVYLQMNSLKPEDTAVYYCAVFYTRIGPRYDYWGQGTQVTVSS	high polyreactivity
QVQLVESGGGLVQAGGSLRLSCAASGFTFVVNAMGWYRQAPGKERELVATIRSNGGSTYYADSVKGRFTISRDNAKNTVYLQMNSLKPEDTAVYYCNTDRKHQSGRESAEMDYWGQGTQVTVSS	low polyreactivity
QVQLVESGGGLVQAGGSLRLSCAASGFTFVYKDMGWYRQAPGKEREFVAAISSGGSTYYADSVKGRFTISRDNAKNTVYLQMNSLKPEDTAVYYCARRNPGPKHARYGYWGQGTQVNVSS	high polyreactivity
QVQLVESGGGLVQAGGSLRLSCAASGFTFVYYAMGCYRQAPGKERELVAAISRSGATTFYADSVKGRFTISRDNAKNTVYLQMNSLKPEDTAVYYCAVDSYAYYYGYWGQGTQVTVSS	high polyreactivity
QVQLVESGGGLVQAGGSLRLSCAASGFTFVYYAMGWSRQAPGKERELVAAISRSGATTYYADSVKGRFTISRDNAKNTVYLQMNSLKPEDTAVYYCAAVYRHPRENWPDTRYGYWGQGTQVTVSS	high polyreactivity
QVQLVESGGGLVQAGGSLRLSCAASGFTFVYYAMGWYRQAPGKERELVAAISGRGGSTYYADSVKGRFTISRDNAKNTVYLQMNSLKPEDTAVYYCATTYSWYYVPYKPHIYYYWGQGTQVTVSS	low polyreactivity
QVQLVESGGGLVQAGGSLRLSCAASGFTFVYYAMGWYRQAPGKERELVATISGNGGRTYYADSVKGRFTISRDNAKNTVYLQMNSLKPEDTAVYYCAADVVTYLSYTLDYWGQGTQVTVSS	low polyreactivity
QVQLVESGGGLVQAGGSLRLSCAASGFTFWAYAMGWYRPAPGKERELVARISGSGGRTYYADSVKGRFTISRDNAKNTVYLQMNSLKREDTAVYYCNAPYFNWYGYWGQGTQVTVSS	high polyreactivity
QVQLVESGGGLVQAGGSLRLSCAASGFTFWAYAMGWYRQAPGKETELVAAISKTGGRTYYADSVKGRFTISRDNAKNTVYLQMISLKPEDTAVYYCAVDITGLYYPVDYWGQGTQVTVSS	high polyreactivity
QVQLVESGGGLVQAGGSLRLSCAASGFTFWDYTMGWYRQAPGKERELVAAITRSGGRTYYADSVKGRFTISRDNAKNTVYLQMNSLKPEDTAVYYCAAKIWSKDEKHDYWGQGTQVTVSS	high polyreactivity
QVQLVESGGGLVQAGGSLRLSCAASGFTFWFNAMGWYRQSRGTERELVPTIRRSGGTTYYADSVKGRFTISRDKAKNTVYLQMNSLKPEDTAVYYCAADDYYYPGTVYYFTPGYNYWGQGTQVTVSS	low polyreactivity
QVQLVESGGGLVQAGGSLRLSCAASGFTFWKYAMGWYRQAPGKERELVAAISVSGGRTYYADSVKGRFTISRDNAKNTVYLQMNSLKPEDTAVYYCNATPWRPYVGGEYWGQGTQVTVSS	high polyreactivity
QVQLVESGGGLVQAGGSLRLSCAASGFTFWLYAMGWYRQAPGKERELVAAITSGGGTYYADSVKGRFTISRDNEKNTVYLQMNSLKPEDTAVYYCAAEWVRDYEQGVSSFGFYYWGQGTQVTVSS	low polyreactivity
QVQLVESGGGLVQAGGSLRLSCAASGFTFWPYTMGWYRQAPGKERELVAVISSSGGSTYYADSVKGRFTISRDNAKNTVYLQMNSLKPEDTAVYYCNARRRYGHVDYWGQGTQVTVSS	high polyreactivity
QVQLVESGGGLVQAGGSLRLSCAASGFTFWQYAMGWYRQAPGKERELVAAISGSGSSTYYADSVKGRFTISRDNAKNTVYFQMNSLKPEDTAVYYCATAISRYGRYYYWGQGTQVTVSS	high polyreactivity
QVQLVESGGGLVQAGGSLRLSCAASGFTFWQYAMGWYRQAPGKERELVAAITSSGTSTNYADSVKGRFTISGDNAKKTVYLQMNSLKPEETAVYYCAADLGYYDLYYWGQGTQVTVSS	low polyreactivity
QVQLVESGGGLVQAGGSLRLSCAASGFTFWQYDMGWYRQAPGKERELVAAITSSGSRTYYADSVKGRFTISRDNAKNTVYLQMNSLKPEDTAVYYCNTYLRYWVSYSYDYWGQGTQVTVSS	high polyreactivity
QVQLVESGGGLVQAGGSLRLSCAASGFTFWRNALGWYRQAPGKERELVAAISWRGGSTYYADSVKGRFTISRDNAKNTVSLQINSRKPEDTAGYYCNVVYFRYYSGEYDYGGQGTQVTVSS	high polyreactivity
QVQLVESGGGLVQAGGSLRLSCAASGFTFWWYAMGWYRQAPGKERELVAAISSGGSTNYADSVKGRFTISRDNAKNTVYLQMNSLKPEDTAVYYCNKDYYGSPSSYYGYDYWGQGTQVTESS	high polyreactivity
QVQLVESGGGLVQAGGSLRLSCAASGFTFWYYAMGWYRQAPGKERELVAAISWSGVSTYYADSVKGRFTISRDNAKNTVYLQMNSLKPEDTAVYYCNRRARSYADDYWGQGTQVTVSS	high polyreactivity
QVQLVESGGGLVQAGGSLRLSCAASGFTFWYYAMGWYRQAPGKERELVAAITYNGDRTYYADSVKGRFTISRDNAKNTVYLQMNSLKREDTAVYYCAVYLGIRSGTANDYWGQGTQVTVSS	high polyreactivity
